Assay [1] deals with T1, recombinant human CXCL1 protein (human, UniProt P09341 35-107).
T1 construct: also called human chemokine CXCL1; soluble recombinant human CXCL1
T1 sequence: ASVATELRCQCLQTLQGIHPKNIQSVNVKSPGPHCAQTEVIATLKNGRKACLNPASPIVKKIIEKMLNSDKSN
Kind of assay: ELISA, human CXCL1 coated 30 ng per well, IgG 1/10 dilute original, donkey anti-human HRP, TMB. Here is the method: The human CXCL1 protein was coated onto 96-well, 30 ng for well at 4° C. overnight. The plate was blocked by 3% skim milk in PBS 2 h at room temperature. The plate was washed 3 times with PBST and applied anti-human CXCL1 humanized version IgG antibodies were diluted 1/100 and 1/10 in PBS and subjected into antigen coated plate for 1 h at room temperature. The donkey anti-human monoclonal antibody with HRP conjugate antibody was diluted 1/3000 and applied for 45 min at room temperature, afterwards washed 3 times with PBST and developed with TMB solution.

In assay [2] the target is T1, recombinant human CXCL1 protein. Kind of assay: apparent affinity-binding constant, in PBS; method not stated; in PBS.
Assay [3] shares this target. In words: apparent KD from the absorbance (450 nm) curve in human serum diluted 1:4.
Another assay has as its target T2, mouse CXCL1 (mouse, UniProt P12850 25-96, limits assumed).
T2 sequence (looked up): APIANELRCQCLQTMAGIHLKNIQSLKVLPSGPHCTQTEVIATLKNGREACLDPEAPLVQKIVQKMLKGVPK
Kind of assay: immunoblot strip (the text does not name the assay); 10, 20 and 30 ng of CXCL1 of each species loaded. On the technique in general: Immunoblotting shows a protein as a band on a membrane.

The next assay has as its target T3, rat CXCL1 (rat, UniProt P14095 25-96, limits assumed).
T3 sequence (looked up): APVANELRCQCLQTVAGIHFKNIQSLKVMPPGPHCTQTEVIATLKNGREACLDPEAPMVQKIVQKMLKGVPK
The assay is described as above.

Assay [4] has as its target T1, recombinant human CXCL1 protein. In words: apparent affinity-binding constant, in serum 1:40 dilution; method not stated; serum, 1:40 dilution.

The values that follow come from patent US20240018229A1 (published 2024).

B1: Hum2401 IgG antibody (antibody, V domains shown)
VH: QVQLVESGGGLVQPGGSLRLSCKASGYTFTSYYIYWVRQAPGKGLEWIGEIDPSHGGPTFNEKFKNRFTISRDNSKNTLYLQMNSLRAEDTAVYYCTRESGTGAMDYWGQGTLVTVSS
VL: DIQMTQSPSSLSASVGDRATISCKASQSVDYDGDSYVNWYQQKPGKAPKLLIYAASNLESGIPSRFSGSGSGTDFTLTISSLQPEDFATYYCQQSSEDPWTFGQGTKVEIKR
notes: also called Hum2401 Ab; Pcmvdhfr-Hum2401(H+L)
Consider B1, for which the ELISA signals in assay [1] turned out to be 2.1.

B2: anti-CXCL1 neutralizing monoclonal mouse antibody (HL2401) (antibody, V domains shown)
VH: EVKLVESGAELVKPGASVKLSCKASGYTFTSYYIYWVKQRPGQGLEWIGEIDPSHGGPTFNEKFKNKATLTVDKSSSTAYMQLSSLTSDDSAVYYCTRESGTGAMDYWGQGTTLTVSS
VL: DIVLTQSPASLAVSLGQRATISCKASQSVDYDGDSYVNWYQQKPGQPPKLLIYAASNLESRIPARFSGSGSGTDFTLNILPVEEDDGATYYCQQSSEDPWTFGGGTKLEIKR
notes: also called CXCL1 mAb (HL2401); mouse anti-human CXCL1 antibody HL2401
Turning to B2, the Kd in assay [2] came out at 0.176 µg/mL; in assay [3] it was 0.387 µg/mL; in assay [4], 0.252 µg/mL. Moreover, the binding result with mouse CXCL1 and in the assay with rat CXCL1 was “no binding (tested: 30 ng)” in each case.
